Source: the supplement of paper PMC7877785
± gives the uncertainty stated by the source.

Test: self-splicing fitness, log relative to wild type (ln ratio); higher = more splicing; Tetrahymena group I intron in knt gene, E. coli kanamycin selection, DiMSum; sequences stand for … in CUCUCU…GGAGGGAAAAGUUAUCAGGCAUGCACCUGGUAGCUAGUCUUUAAACCAAUAGAUUGCAUCGGUUUAAAAGGCAAGACCGUCAAAUUGCGGGAAAGGGGUCAACAGCCGUUCAGUACCAAGUCUCAGGGGAAACUUUGAGAUGGCCUUGCAAAGGGUAUGGUAAUAAGCUGACGGACAUGGUCCUAACCACGCAGCCAAGUCCUAAGUCAACAGAUCUUCUGUUGAUAUGGAUGCAGUUCACAGACUAAAUGUCGGUCGGGGAAGAUGUAUUCUUCUCAUAAGAUAUAGUCGGACCUCUCCUUAAUGGGAGCUAGCGGAUGAAGUGAUGCAACACUGGAGCCGCUGGGAACUAAUUUGUAUGCGAAAGUAUAUUGAUUAGUUUUGGAGUACUCGUGGUCG
In short: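 Fitness was computed with DiMSum as the error-weighted combination of replicate fold changes, kanamycin versus none, each normalised to wild type. The library randomised all eight intron nucleotides of the P1ex region, with the intron placed in the knt kanamycin-resistance gene on pET-22b(+) in E. coli BL21(DE3). Six replicate transformations were grown overnight at 37°C or 30°C on LB agar with or without 25 μg/mL kanamycin, plus 100 μg/mL carbenicillin, 50 μM IPTG and 0.2% rhamnose. Pooled colonies were amplicon-sequenced on an Illumina HiSeq 2500.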

| Sequence | self-splicing fitness (ln) (30 °C) | self-splicing fitness (ln) (37 °C) |
| --- | --- | --- |
| CGCUAGCAAUAUUACGACCA | -1.86 ± 0.093 | -1.24 ± 0.12 |
| CGCUAGCAAUAUUACGAUGU | -2.56 ± 0.11 | -1 ± 0.11 |
| CGCUAGCAAUAUUACGCAAU | -2.44 ± 0.3 | -2.09 ± 0.36 |
| CGCUAGCAAUAUUACGCAGC |  | -2.8 ± 0.33 |
| CGCUAGCAAUAUUACGCCGA | -0.916 ± 0.21 | -0.258 ± 0.15 |
| CGCUAGCAAUAUUACGCUUA | -3.03 ± 0.33 | -2.75 ± 0.27 |
| CGCUAGCAAUAUUACGGAUC | -3.32 ± 0.24 | -1.14 ± 0.15 |
| CGCUAGCAAUAUUACGGGAA | -3.1 ± 0.22 | -2.76 ± 0.26 |
| CGCUAGCAAUAUUACGGGCA | -0.187 ± 0.07 | -0.269 ± 0.079 |
| CGCUAGCAAUAUUACGGUAA | -1.73 ± 0.1 | -2.12 ± 0.11 |
| CGCUAGCAAUAUUACGGUAC | -3.35 ± 0.23 | -1.95 ± 0.22 |
| CGCUAGCAAUAUUACGGUCA | -0.0527 ± 0.076 | 0.137 ± 0.079 |
| CGCUAGCAAUAUUACGGUUA | -2.22 ± 0.23 | -1.82 ± 0.2 |
| CGCUAGCAAUAUUACGUAAG | -0.553 ± 0.073 | -0.0723 ± 0.1 |
| CGCUAGCAAUAUUACGUACA | -2.62 ± 0.14 | -1.35 ± 0.15 |
| CGCUAGCAAUAUUACGUAUU | -3.85 ± 0.21 | -1.9 ± 0.18 |
| CGCUAGCAAUAUUACGUCGG | -1.6 ± 0.075 | -0.631 ± 0.12 |
| CGCUAGCAAUAUUACGUGAC |  | -2.52 ± 0.3 |
| CGCUAGCAAUAUUACGUGCA | -0.672 ± 0.095 | 0.116 ± 0.11 |
| CGCUAGCAAUAUUACGUGCG | -3.74 ± 0.26 | -2.4 ± 0.22 |
| CGCUAGCAAUAUUACGUGUU | -4.69 ± 0.29 | -3.17 ± 0.26 |
| CGCUAGCAAUAUUACGUUCG | -1.46 ± 0.067 | -0.781 ± 0.089 |
| CGCUAGCAAUAUUACGUUUG | -2.31 ± 0.085 | -0.505 ± 0.094 |
| CGGAAGCAAUAUUACGAGCU | -2.93 ± 0.21 | -3.07 ± 0.27 |
| CGGAAGCAAUAUUACGAGUG | -0.361 ± 0.05 | -0.0668 ± 0.075 |
| CGGAAGCAAUAUUACGCAUA |  | -1.12 ± 0.27 |

| Sequence | self-splicing fitness (ln) (30 °C) | self-splicing fitness (ln) (37 °C) |
| --- | --- | --- |
| CGGAAGCAAUAUUACGCCUC | -3.04 ± 0.27 | -2.89 ± 0.4 |
| CGGAAGCAAUAUUACGCUGU | -3.49 ± 0.15 | -1.3 ± 0.08 |
| CGGAAGCAAUAUUACGCUUA |  | -2.15 ± 0.32 |
| CGGAAGCAAUAUUACGGAAA | -1.12 ± 0.21 | -2.23 ± 0.29 |
| CGGAAGCAAUAUUACGGAGG | -1.25 ± 0.15 | -1.01 ± 0.21 |
| CGGAAGCAAUAUUACGGGAC | -3.5 ± 0.3 |  |
| CGGAAGCAAUAUUACGGGCA | -1.52 ± 0.16 | -1.6 ± 0.19 |
| CGGAAGCAAUAUUACGGGUG | -0.485 ± 0.09 | 0.544 ± 0.086 |
| CGGAAGCAAUAUUACGGGUU | -4.48 ± 0.26 | -2.77 ± 0.2 |
| CGGAAGCAAUAUUACGGUGG | -0.759 ± 0.099 | -0.586 ± 0.1 |
| CGGAAGCAAUAUUACGUAAA | -2.94 ± 0.21 | -1.79 ± 0.23 |
| CGGAAGCAAUAUUACGUCCU | 0.17 ± 0.12 | 0.626 ± 0.12 |
| CGGAAGCAAUAUUACGUCGA | -2.59 ± 0.19 | -1.67 ± 0.18 |
| CGGAAGCAAUAUUACGUGGC | -3.67 ± 0.18 | -2.54 ± 0.23 |
| CGGAAGCAAUAUUACGUGGU | -3.62 ± 0.21 | -1.94 ± 0.2 |
| CGGAAGCAAUAUUACGUGUA | -3.19 ± 0.17 | -3.6 ± 0.27 |
| CGGAAGCAAUAUUACGUUGC | -3.59 ± 0.26 | -2.69 ± 0.48 |
| CGGCAGCAAUAUUACGAACC | -0.757 ± 0.33 | -0.368 ± 0.37 |
| CGGCAGCAAUAUUACGACCA | -0.307 ± 0.1 | 0.682 ± 0.14 |
| CGGCAGCAAUAUUACGAGAC | -3.78 ± 0.22 | -3.43 ± 0.35 |
| CGGCAGCAAUAUUACGAGUC | -1.86 ± 0.34 | -1.76 ± 0.25 |
| CGGCAGCAAUAUUACGCACA | -0.39 ± 0.1 | -0.122 ± 0.14 |
| CGGCAGCAAUAUUACGCACU | -1.45 ± 0.086 | -0.361 ± 0.1 |
| CGGCAGCAAUAUUACGCGCU | -4.1 ± 0.25 | -1.99 ± 0.25 |
| CGGCAGCAAUAUUACGGACC | -2.09 ± 0.26 | -1.26 ± 0.2 |
| CGGCAGCAAUAUUACGGAGC | -3.37 ± 0.14 | -3.3 ± 0.2 |

| Sequence | self-splicing fitness (ln) (30 °C) | self-splicing fitness (ln) (37 °C) |
| --- | --- | --- |
| CGGCAGCAAUAUUACGGCAC | -2.58 ± 0.28 | -2.21 ± 0.22 |
| CGGCAGCAAUAUUACGGCAG | -0.677 ± 0.095 | -0.796 ± 0.11 |
| CGGCAGCAAUAUUACGGCGG | -1.26 ± 0.11 | -0.79 ± 0.14 |
| CGGCAGCAAUAUUACGGGGU | -3.58 ± 0.19 | -3.28 ± 0.31 |
| CGGCAGCAAUAUUACGGUAU | -3.82 ± 0.19 | -3.18 ± 0.22 |
| CGGCAGCAAUAUUACGUAGA | -2.33 ± 0.12 | -1.19 ± 0.17 |
| CGGCAGCAAUAUUACGUGCU | -3 ± 0.14 | -1.63 ± 0.16 |
| CGGCAGCAAUAUUACGUGUC | -3.89 ± 0.31 | -2.6 ± 0.2 |
| CGGCAGCAAUAUUACGUUAC | -3.4 ± 0.2 | -3.3 ± 0.33 |
| CGGCAGCAAUAUUACGUUGG | -2.38 ± 0.11 | -1.46 ± 0.12 |
| CGGGAGCAAUAUUACGAAUU | -3.16 ± 0.34 |  |
| CGGGAGCAAUAUUACGCCGU | -3.46 ± 0.47 |  |
| CGGGAGCAAUAUUACGCGGC | -2.4 ± 0.43 | -1.77 ± 0.3 |
| CGGGAGCAAUAUUACGCUAU | -3.6 ± 0.31 | -2.64 ± 0.48 |
| CGGGAGCAAUAUUACGCUGA | -1.34 ± 0.21 | -2.14 ± 0.31 |
| CGGGAGCAAUAUUACGCUGU | -2.76 ± 0.33 | -2.43 ± 0.34 |
| CGGGAGCAAUAUUACGGAAU | -4.07 ± 0.46 | -1.42 ± 0.43 |
| CGGGAGCAAUAUUACGGAGG | -3.27 ± 0.15 | -3.12 ± 0.3 |
| CGGGAGCAAUAUUACGGAUC | -3.09 ± 0.43 | -2.07 ± 0.42 |
| CGGGAGCAAUAUUACGGCCG | -3.09 ± 0.31 |  |
| CGGGAGCAAUAUUACGGCCU | -3.25 ± 0.31 | -2.88 ± 0.44 |
| CGGGAGCAAUAUUACGGCUG | -2.43 ± 0.25 | -2.14 ± 0.34 |
| CGGGAGCAAUAUUACGGGCG | -2.44 ± 0.31 | -2.67 ± 0.41 |
| CGGGAGCAAUAUUACGGGUA | -2.54 ± 0.21 | -1.75 ± 0.2 |
| CGGGAGCAAUAUUACGGUUA | -3.42 ± 0.25 | -2.69 ± 0.29 |
| CGGGAGCAAUAUUACGUGGA | -2.06 ± 0.15 | -3.14 ± 0.23 |
